Here are results for three proteins from paper PMC2868043, “The Yeast Cell Fusion Protein Prm1p Requires Covalent Dimerization to Promote Membrane Fusion” (PLoS ONE, 2010).

Data set [1] deals with the molecule itself. Kind of data set: non-reducing SDS-PAGE and Western blot; whole cell lysate, reducing agent omitted from the sample buffer; cells induced with 10 µg/ml α-factor for 90 min (GFP alleles, anti-GFP blot) or with galactose (HA-PRM1, anti-HA blot); shows only SDS-resistant covalent dimers.
Data set [2] deals with the molecule itself. Kind of data set: non-reducing SDS-PAGE + affinity purification with mass spectrometry; Prm1p purified from mating cells under native conditions by α-myc immunoprecipitation, eluted with 2% SDS, 10% bis-Tris gel, colloidal blue staining; unreduced sample analysed by mass spectrometry (data not shown).

B1: Prm1-GFP (natural protein, S. cerevisiae, UniProt P53835 1-661, looked up)
chain: MSGFKCYLQLGDRLSQIWLNKYTLVLLLAMLKLLFFSKSIQHAIEVSETYILSNCYSIDSLYSKMTDNTPHYLGIMGNYLIEKGMEETVKATLETLSLIVYASEGLVNFAIDLYLGTYACLIVSAVDGTVDVATNITEKLISLVNDTVSSVANELDTGLNDISKIINKVIKAASKVENFFTGDDDDSNMTSSIKSVNLTISALHNLYIPSSINDKLEELSAKTPDFAQVKNTTKNLISVPFNEVRKNIKAVNASNIIGDTSVLYVPPVSLDNSTGICSSNQSEILAFYSILGHVLKIATVVCITVLICFAVGAMAPVAWNEIKLWRRLCGMRDHYMLSRQDSYTSFSSENTHELKDPFRDPPIQNGQYDVIASYQQCFQTWNTRIAGWMTNLVTFGKSPENIDPKTKQKIEWVVAYMTSERALCVLGIGLLGILVCICQFVMIALLKHKISHSLTSNDGDGVQNLLKSSTAVDIENQMSLWSVQTNKYINTTETNINQEVFGWINTTTLSVNNTVATMISDIDTTLADVFNGTLLYNPMKTVVGCAIENKLYTIEKAMTWIHDKAQLHIPRINGTQIKQALAKQTDNSTIPTASSTSAATENLLENLVNDMREGLLKILRAYHRITLGELTVALVILAVWLVQLPIALVILRLRLRKATFD
notes: Prm1p, mating-specific multipass membrane protein of S. cerevisiae; monomer 73 kD; Glycosylated (sugar modifications); Forms a disulfide-linked homodimer; also called Prm1p; source: S. cerevisiae (W303 derivatives), PRM1 promoter, induced with α-factor or by mating; in whole cell lysate or Triton X-100 solubilised membranes; not shown: GFP, C-terminal, kept
In the case of B1, in data set [1], the “stoichiometry N” value was 2.

B2: HA-Prm1p (natural protein, S. cerevisiae, UniProt P53835 1-661, looked up)
chain: MSGFKCYLQLGDRLSQIWLNKYTLVLLLAMLKLLFFSKSIQHAIEVSETYILSNCYSIDSLYSKMTDNTPHYLGIMGNYLIEKGMEETVKATLETLSLIVYASEGLVNFAIDLYLGTYACLIVSAVDGTVDVATNITEKLISLVNDTVSSVANELDTGLNDISKIINKVIKAASKVENFFTGDDDDSNMTSSIKSVNLTISALHNLYIPSSINDKLEELSAKTPDFAQVKNTTKNLISVPFNEVRKNIKAVNASNIIGDTSVLYVPPVSLDNSTGICSSNQSEILAFYSILGHVLKIATVVCITVLICFAVGAMAPVAWNEIKLWRRLCGMRDHYMLSRQDSYTSFSSENTHELKDPFRDPPIQNGQYDVIASYQQCFQTWNTRIAGWMTNLVTFGKSPENIDPKTKQKIEWVVAYMTSERALCVLGIGLLGILVCICQFVMIALLKHKISHSLTSNDGDGVQNLLKSSTAVDIENQMSLWSVQTNKYINTTETNINQEVFGWINTTTLSVNNTVATMISDIDTTLADVFNGTLLYNPMKTVVGCAIENKLYTIEKAMTWIHDKAQLHIPRINGTQIKQALAKQTDNSTIPTASSTSAATENLLENLVNDMREGLLKILRAYHRITLGELTVALVILAVWLVQLPIALVILRLRLRKATFD
notes: Prm1p, S. cerevisiae, under control of the GAL1 promoter; also called GALPRO-HA-PRM1; source: S. cerevisiae (W303 derivative), genomic GAL1 promoter fusion, galactose induced; in whole cell lysate
With B2, in data set [1], the “stoichiometry N” value stood at 2.

B3: Prm1-myc (natural protein, S. cerevisiae, UniProt P53835 1-661, looked up)
chain: MSGFKCYLQLGDRLSQIWLNKYTLVLLLAMLKLLFFSKSIQHAIEVSETYILSNCYSIDSLYSKMTDNTPHYLGIMGNYLIEKGMEETVKATLETLSLIVYASEGLVNFAIDLYLGTYACLIVSAVDGTVDVATNITEKLISLVNDTVSSVANELDTGLNDISKIINKVIKAASKVENFFTGDDDDSNMTSSIKSVNLTISALHNLYIPSSINDKLEELSAKTPDFAQVKNTTKNLISVPFNEVRKNIKAVNASNIIGDTSVLYVPPVSLDNSTGICSSNQSEILAFYSILGHVLKIATVVCITVLICFAVGAMAPVAWNEIKLWRRLCGMRDHYMLSRQDSYTSFSSENTHELKDPFRDPPIQNGQYDVIASYQQCFQTWNTRIAGWMTNLVTFGKSPENIDPKTKQKIEWVVAYMTSERALCVLGIGLLGILVCICQFVMIALLKHKISHSLTSNDGDGVQNLLKSSTAVDIENQMSLWSVQTNKYINTTETNINQEVFGWINTTTLSVNNTVATMISDIDTTLADVFNGTLLYNPMKTVVGCAIENKLYTIEKAMTWIHDKAQLHIPRINGTQIKQALAKQTDNSTIPTASSTSAATENLLENLVNDMREGLLKILRAYHRITLGELTVALVILAVWLVQLPIALVILRLRLRKATFD
notes: Prm1p, mating-specific multipass membrane protein of S. cerevisiae; Made by replacing the GFP of the PRM1-GFP plasmid with the tag of a PRM1-myc strain, so the tag is probably C-terminal; also called Prm1p; source: S. cerevisiae (W303 derivatives), PRM1 promoter, mating cells; in Triton X-100 solubilised membranes, or purified by α-myc immunoprecipitation
Take B3: the “stoichiometry N” value in data set [2] came to 2.

In general, stoichiometry N refers to the number of molecules, sites or subunits per partner or assembly.
